# B1: recombinant mouse SLLP2: purified recombinant mouse sperm lysozyme-like protein 2 (mature protein SEQ ID NO:16) (protein, listed as Mus musculus)
# chain: KIYERCELAKKLEEAGLDGFKGYTVGDWLCVAHYESGFDTSFVDHNPDGSSEYGIFQLNSAWWCNNGITPTQNLCNIDCNDLLNRHILDDIICAKRVASSHKSMKAWDSWTQHCAGHDLSEWLKGCSVRLKTDSSYNNW
# How the values were obtained:
# Type in all cases: cell-based
# [1] = system: mouse sperm-egg fusion; assay: Mouse sperm-egg fusion with recombinant mouse SLLP2; details: 100 or 200 μg/ml, relative to BSA and PBS controls
# Procedure: Next, it was determined whether recombinant mouse SLLP2 could inhibit mouse sperm-egg fusion. In groups treated with recombinant mouse SLLP2 the number of sperm fused per egg was reduced to about 0.1 sperm fused per egg, at concentrations of 100 or 200 μg/ml recombinant mouse SLLP2, relative to BSA and PBS control treatments.
# [2] = system: mouse eggs; assay: Binding of SLLP2 to mouse eggs
# Procedure: To analyze the biologic activity of human SLLP2, it was determined whether it would bind to an egg, in this case, a mouse egg.
# (§1) For comparison to the use of human sperm SLLP2, an experiment was performed to determine if purified mouse SLLP2 would bind to Zona intact mouse eggs. […] Competitive assays were then performed to determine whether the addition of recombinant mouse SLLP2 to a mixture of mouse sperm and mouse eggs could inhibit binding of sperm and eggs. Various amounts of recombinant mouse SLLP2 were added (5, 25, 50, 100, and 200 μg/ml) and the number of sperm bound per egg was determined.
# [3] = system: mouse sperm and mouse eggs; assay: Competitive assay of sperm-egg binding with recombinant mouse SLLP2; details: 5, 25, 50, 100 and 200 μg/ml, relative to BSA (200 μg/ml) or PBS controls
# Procedure: as §1
# [4] = system: mouse eggs; assay: Fertilization of mouse eggs with mouse sperm with recombinant mouse SLLP2
# Procedure: Recombinant mouse SLLP2 at concentrations of 25, 50, 100, and 200 μg/ml was incubated with sperm and egg, and compared to BSA and PBS controls as described above. It can be seen that fertilization occurred at a rate of about 75% in the BSA and PBS controls groups. […] Also provided are comparisons of human SLLP2 to other mammalian sequences, and well as a comparison indicating the conservation of SLLP2 ortholog in dogs.
molecule,measurement,setting,value
B1,number of sperm fused per egg,[1],about 0.1 sperm fused per egg
same,binding to Zona-free mouse eggs,[2]; mouse SLLP2,would bind to Zona-free mouse eggs
same,binding to Zona intact mouse eggs,[2]; purified mouse SLLP2,does indeed bind to mouse eggs
same,number of sperm bound per egg,[3],able to reduce the amount of binding occurring between sperm and egg
same,inhibition of fertilization,[4]; 200 μg/ml,nearly totally inhibiting fertilization
same,inhibition of fertilization,"[4]; 25, 50, 100 and 200 μg/ml, vs BSA and PBS controls",inhibited fertilization in a dose-dependent fashion

# From patent US9803012B2, “Compositions and methods for regulating SAS1R” (UNIVERSITY OF VIRGINIA PATENT FOUNDATION, priority 2005, dated 2017)
